Source: US11066655B2, “RNA polymerase, methods of purification and methods of use” (President and Fellows of Harvard College, priority 2013, dated 2021)

Assays:
[1] = tested on: pET24-S5RNAP DNA; experiment: Catalytic efficiency at various ribonucleotide concentrations (filter-binding assay); format: biochemical; conditions: for kcat/KmGTP / Km / kcat: GTP varied; for Km / KmGTP (results obtained with UTP): other NTPs 1 mM; for Km: 24° C., 5 min, read-out: apparent Km for GTP; for Km / kcat: 160 mM KCl for Syn5 RNAP, omitted for T7 RNAP; for kcat/KmGTP (results obtained with UTP) / kcatGTP (results obtained with UTP) / KmGTP (results obtained with UTP): UTP varied; for kcatGTP (results obtained with UTP) / KmGTP (results obtained with UTP): FIG. 7C/7D
Experimental: FIGS. 7A-7D depict a comparison of transcription efficiency of Syn5 and T7 RNAP at various ribonucleotide concentrations. A) Incorporation of NMP by Syn5 RNAP at various GTP concentrations. B) Incorporation of NMP by T7 RNAP at various GTP concentrations. C) Incorporation of NMP by Syn5 RNAP at various UTP concentrations. D) Incorporation of NMP by T7 RNAP at various UTP concentrations. Varied ribonucleotide concentrations were 7.8, 15.6, 31.3, 62.5, 125, 250, 500, 1000 µM while other NTPs were all at 1 mM, RNAP and template were both 20 nM, and the reaction time was 5 min at 24° C. 160 mM KCl was added for Syn5 RNAP reactions.
For the assays described in FIG. 7, reaction mixtures contained 40 mM Tris-HCl (pH 8.0), 6 mM MgCl2, 2 mM spermidine, 10 mM DTT, 20 nM Syn5 or T7 RNAP, 20 nM pET24-S5RNAP DNA, 1 mM ^3H-ATP (20 cpm/pmole), CTP, UTP (or GTP), and varying amounts of GTP (or UTP). 160 mM KCl was added for the Syn5 RNAP reactions. After various times the reactions were stopped by the addition of 20 mM EDTA. 4 µl of the mixtures were then loaded onto Whatman DE81 filter paper disks and the disks were washed to remove the unincorporated ^3H-ATP. The amount of insoluble ^3H-AMP, corresponding to nucleotides incorporated into newly synthesized RNA, was measured using a scintillation counter. The data were analyzed using Prism software.

[2] = tested on: T7 promoter; experiment: Cross recognition of promoters, gel transcription assay; format: biochemical, bacteriophage T7; conditions: T7 DNA fragment with T7 Φ1.1 B promoter
Experimental: FIGS. 3A-3C depict characterization of the Syn5 promoter. A) Determination of the 3′-end of Syn5 promoter. 3′-dATP, 3′-dGTP, 3′-dUTP replaced ATP, GTP and UTP, respectively, as chain terminator to sequence the 5′-end of Syn5 RNAP transcript on a template same as template 1 in FIG. 2B. Once the 5′-terminus of the transcript was determined, the sequence preceding it should be the promoter and the 3′-end of the promoter can thus be defined. A 25% TBE-urea gel was used for this assay. B) Cross recognition between Syn5 and T7 transcription systems. Syn5 RNAP synthesizes runoff products on a fragment of T7 DNA provided the T7 promoter is replaced by a Syn5 promoter (lane a). Syn5 RNAP fails to produce transcripts if the first nucleotide downstream of the promoter is changed from G to T (lane b). […]
For the gel assay results shown in FIGS. 1, 2, 3, and 13, reaction mixtures (20 μl) contained 40 mM Tris-HCl (pH 7.9), 6 mM MgCl2, 2 mM spermidine, 10 mM DTT, 200 µM[…]P, GTP and UTP, 10 µM [[…]-^32P]CTP, 1.5 U/µl RNaseOUT™ recombinant ribonuclease inhibitor (Invitrogen), 100 nM Syn5 or T7 RNAP, and DNA templates as described in the figure legends (either 2 nM phage genomic DNA, 4 nM purified PCR products, or 1 µM synthetic dsDNA fragments). […] After electrophoresis, gels were dried and analyzed using a Fuji BAS 1000 Bioimaging Analyzer.

**Q.** Which kcat/KmGTP [1] does the source give for “T7 RNAP: RNA polymerase encoded by bacteriophage T7, from New England Biolabs [reference compound]” here?
**A.** 90000 M⁻¹ s⁻¹

**Q.** What about the Km [1] of the same molecule?
**A.** 45.8 ± 9 µM

**Q.** And the kcat [1]?
**A.** 4.1 s⁻¹

**Q.** And the kcat/KmGTP (results obtained with UTP) [1]?
**A.** 290000 M⁻¹ s⁻¹

**Q.** What about the “kcatGTP (results obtained with UTP)” value [1] of the same molecule?
**A.** 6.8 s⁻¹

**Q.** And the “KmGTP (results obtained with UTP)” value [1]?
**A.** 23.3 ± 5.5 µM

**Q.** And the “transcription from a T7 promoter” value [2]?
**A.** initiates transcription and produces a runoff transcript

B1: Syn5 RNAP: single subunit DNA-dependent RNA polymerase from marine cyanophage Syn5, amino acid sequence SEQ ID NO:23 (protein)
chain: MSFDLIARQLQRETEAAELARKRLQDARREANERSYASSNIESRKAIATFLDPIAQRIGERLFTLRRGTGAVDAAEVYKHLKNADHHHLALITMKTALDVLGKDPEPQIQQLTTAIGRNIQLELRLTYYAEENPELYKQASRFFHAGTGTRQKATVIKLKFNREGIEWDQWSRVTCHKVGQWLMLAMADVTGWIERATDRTSGGRKTKTRICYSREFLQHRDTILAAAEQLAFCQWPMLCPPIEWSNDHNGGYLSEQIRRVNPLIRKTGPLGTRKQGDIPLAMLNNLQGQAYKVNPEVLDIANHCYESNVTVGKFIRHAPLPVPPSPGEDCTEDQLTAYKRARREAEDFNAQISQKNWRTTEVMYVARKYADEASFWMPASFDYRGRVYFLNTALNPQGTDFDKALLYFAEEGPVNEWWLSFHVATTYGLDKETMVNRVQWARDNHELIDRIASDPVRHTEWHDADEPWCFLAACLEYKACVIDGTKQTSGLPIGIDATCSGLQHLAAMTRCGRTAALVNVTPTDKPADAYKTVAQASLKHLPKEQHEWITRKVTKRPVMCTPYGVTMSSARGYIRDQLVKDGHKEDLRSPGVLNGIVKAIFNEAIPEVIPGPVQVMAWLKRSAGQIIDRGDSTITWTTPSGFEVVQDLKKSKTYEVKTRIMGGARIKLQVGDGFTDEPDRDHHKSALAPNVVHSNDASLLHLTFAFWDKPFTVIHDCVLGRSCDMDQMGSDIRLHFAEMYKADVMQDWADQVGVELPVDLIKNTLDIDSVNQSLYFFS
modifications: Amino acid sequence of a cyanophage Syn5 RNAP
**Q.** What does the source list for B1?
**A.** kcat/KmGTP [1]: 180000 M⁻¹ s⁻¹; Km [1]: 13.9 ± 5.6 µM; kcat [1]: 2.5 s⁻¹; kcat/KmGTP (results obtained with UTP) [1]: 380000 M⁻¹ s⁻¹; kcatGTP (results obtained with UTP) [1]: 2.8 s⁻¹; KmGTP (results obtained with UTP) [1]: 7.4 ± 1.5 µM; transcription from a T7 promoter [2]: does not recognize a T7 promoter
